Each block holds one binder with its values, some of them ahead of it.
Key:
[1] = molecular target: T1, recombinant cyno FGFR2b-Fc (Cynomolgus monkey); test: ELISA, plate coated with 0.1 ug/ml cyno FGFR2b-Fc, anti-human IgG HRP detection
T1 construct: also called Cynomolgus monkey FGFR2b ECD-murine Fc; cynomolgus FGFR2b
Description: (§1) The cross-species binding of Ab 36c to recombinant cyno, rat/mouse, and human FGFR2b-Fc fusion proteins was conducted with ELISA. In brief, 96-well ELISA plate were coated with about 100 ul/well 0.1 μg/ml recombinant human FGFR2b-Fc, recombinant rat/mouse FGFR2b-Fc, or recombinant cyno FGFR2b-Fc protein in PBS overnight. Then the plate was blocked with 2% BSA in PBS with 0.05% Tween20 and incubation with antibody samples for 60 min at room temperature, and then washed twice in 1×TBST (Cell Signaling Technology, #9997) and followed by incubation with anti-human lgG HRP (Horseradish peroxidase) conjugate for 60 min at a room temperature. HRP activity was detected with tetra-methylbenzidine substrate (Cell Signaling Technology, #7004) and the reaction was stopped with stop solution (Cell Signaling Technology, #7002). The plate was read at 450 nm. […] Ab 36c has the highest binding affinity to rat/mouse FGFR2b, followed by human FGFR2b, and then cyno FGFR2b.

[2] = molecular target: T2, recombinant rat/mouse FGFR2b-Fc (rat); test: ELISA, plate coated with 0.1 ug/ml rat/mouse FGFR2b-Fc, anti-human IgG HRP detection
T2 construct: also called rat FGFR2b fused with murine Fc
Description: as §1

[3] = molecular target: T3, recombinant human FGFR3b-Fc (human, UniProt P22607-2 23-377); test: ELISA, plate coated with HuFGFR3b
T3 construct: Bought (R&D Systems); not shown: human Fc of the bought fusion protein; not described
T3 sequence (looked up): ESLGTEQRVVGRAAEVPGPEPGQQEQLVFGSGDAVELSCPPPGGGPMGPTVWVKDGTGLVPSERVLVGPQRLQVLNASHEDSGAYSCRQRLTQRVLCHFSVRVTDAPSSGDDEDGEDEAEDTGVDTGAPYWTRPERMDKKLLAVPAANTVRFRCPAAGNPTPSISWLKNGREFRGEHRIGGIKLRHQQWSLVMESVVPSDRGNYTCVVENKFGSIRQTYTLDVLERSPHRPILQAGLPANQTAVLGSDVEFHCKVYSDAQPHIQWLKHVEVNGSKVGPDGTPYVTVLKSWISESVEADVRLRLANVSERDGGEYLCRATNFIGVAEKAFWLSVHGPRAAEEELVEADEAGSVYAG

[4] = molecular target: T4, recombinant human FGFR4-Fc (human, UniProt P22455 22-369); test: ELISA, plate coated with HuFGFR4
T4 construct: Bought (R&D Systems); not shown: human Fc of the bought fusion protein; not described
T4 sequence (looked up): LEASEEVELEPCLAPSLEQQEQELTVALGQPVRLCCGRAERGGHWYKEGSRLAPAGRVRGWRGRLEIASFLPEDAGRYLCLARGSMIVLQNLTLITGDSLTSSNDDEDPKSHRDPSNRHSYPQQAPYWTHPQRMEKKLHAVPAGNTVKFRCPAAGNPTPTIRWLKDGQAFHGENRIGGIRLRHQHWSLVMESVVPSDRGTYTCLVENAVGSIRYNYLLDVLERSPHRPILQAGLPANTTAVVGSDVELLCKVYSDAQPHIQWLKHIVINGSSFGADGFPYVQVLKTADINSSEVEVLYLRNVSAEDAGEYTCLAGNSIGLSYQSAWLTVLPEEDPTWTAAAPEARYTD

[5] = molecular target: T5, recombinant human FGFR1b-Fc (human, UniProt P11362-19 22-376, limits assumed); test: ELISA, plate coated with HuFGFR1b
T5 construct: Bought (R&D Systems); not shown: human Fc of the bought fusion protein; not described
T5 sequence (looked up): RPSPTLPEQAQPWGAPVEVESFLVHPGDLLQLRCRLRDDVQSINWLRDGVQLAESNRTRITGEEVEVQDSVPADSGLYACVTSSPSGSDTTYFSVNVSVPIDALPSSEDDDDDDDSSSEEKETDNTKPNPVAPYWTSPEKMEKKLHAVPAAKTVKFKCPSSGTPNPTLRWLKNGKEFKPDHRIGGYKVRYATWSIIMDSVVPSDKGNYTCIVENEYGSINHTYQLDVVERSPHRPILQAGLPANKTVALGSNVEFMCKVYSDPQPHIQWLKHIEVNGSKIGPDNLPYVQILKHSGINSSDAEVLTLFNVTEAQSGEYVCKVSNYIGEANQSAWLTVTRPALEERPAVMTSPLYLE

[6] = molecular target: T5, recombinant human FGFR1b-Fc; test: ELISA on FGFR family Fc fusion proteins
[7] = molecular target: T4, recombinant human FGFR4-Fc; test: ELISA on FGFR family Fc fusion proteins
[8] = molecular target: T3, recombinant human FGFR3b-Fc; test: ELISA on FGFR family Fc fusion proteins

EC50 (read off the curve) [1]: ~0.4 nM
EC50 (read off the curve) [2]: ~0.2 nM
B1: Ab 36c (antibody, V domains shown)
VH: QPYLQQSGAELVRPGASVKMSCKASGYTFTSYNMHWVKQTPRQGLEWIGAIFPENGDTSYNQKFKGKATLTVDKSSSTAYMQLSSLTSEDSAVYFCARGGFDYWGQGTTLTVSS
VL: DIVMTQSHKFMSTSVGDRVSITCKASQDVSTNVAWYQQKPGQSPKLLIFSASYRYTGVPDRFAGSGSGTDFTFTISSVQAEDLAVYYCQQHYSSPYTFGGGTKLDIK
notes: Chimeric: mouse VH and VL fused to human heavy and light chain constant regions; also called chimeric Ab 36; Ab c 36c

binding result [3]: no binding
binding result [4]: no binding
binding result [5]: no binding
B2: Ab 36 (antibody, V domains shown)
VH: B1 VH
VL: B1 VL
notes: Mouse monoclonal antibody from a hybridoma; also called mouse Ab 36; antibody 36

binding result [6]: no binding
binding result [7]: no binding
binding result [8]: no binding
B3: Ab hu36-2 (antibody, human IgG1, V domains shown)
VH: QVQLVQSGAEVKKPGSSVKVSCKASGYTFTSYNMHWVRQAPGQGLEWIGAIFPENGDTSYNQKFKGRATITADKSTSTAYMELSSLRSEDTAVYYCARGGFDYWGQGTTVTVSS
VL: DIQMTQSPSSLSASVGDRVTITCKASQDVSTNVAWYQQKPGKAPKLLIFSASYRYTGVPSRFSGSGSGTDFTFTISSLQPEDIATYYCQQHYSSPYTFGQGTKLEIK
notes: Humanized antibody with human IgG1

From patent publication US20230052680A1 (DIZAL JIANGSU PHARMACEUTICAL, published 2023)
